Measured values published in patent publication US20250019439A1 (Adimab, published 2025).

Legend:
[1] = target: T1, ADI-50024; assay: SPR Carterra, yeast anti-ID
T1 construct: anti-CD3 antibody made in CHO cells, captured by anti-human Fc
Procedure, shortened: (§1)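 Fitted with a 1:1 binding model after double referencing: Carterra LSA kinetics at 25° C in HBSTE, with anti-idiotype analytes binding anti-CD3 antibodies (100 nM) captured via anti-human Fc on HC30M chip. Dissociation followed 300 s.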

[2] = target: T2, ADI-70326; assay: SPR Carterra, yeast anti-ID
T2 construct: anti-CD3 antibody made in CHO cells, captured by anti-human Fc
Procedure, shortened: as §1

[3] = target: T3, ADI-70327; assay: SPR Carterra, yeast anti-ID
T3 construct: anti-CD3 antibody made in CHO cells, captured by anti-human Fc
Procedure, shortened: as §1

[4] = target: T4, ADI-70330; assay: SPR Carterra, yeast anti-ID
T4 construct: anti-CD3 antibody made in CHO cells, captured by anti-human Fc
T4 sequence (VH, as listed by the source limits assumed, chain 1 of 2): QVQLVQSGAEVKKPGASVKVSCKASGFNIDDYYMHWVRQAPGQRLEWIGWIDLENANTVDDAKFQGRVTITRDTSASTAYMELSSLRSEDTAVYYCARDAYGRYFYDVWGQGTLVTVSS
T4 sequence (VL, as listed by the source limits assumed, chain 2 of 2): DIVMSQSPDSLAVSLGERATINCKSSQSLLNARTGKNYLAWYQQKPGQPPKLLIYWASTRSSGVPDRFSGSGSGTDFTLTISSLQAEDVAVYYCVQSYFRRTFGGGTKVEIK
Procedure, shortened: as §1

[5] = target: T5, ADI-67450; assay: SPR Carterra, yeast anti-ID
T5 construct: anti-CD3 antibody made in CHO cells, captured by anti-human Fc
Procedure, shortened: as §1

[6] = target: T6, ADI-67445; assay: SPR Carterra, yeast anti-ID
T6 construct: anti-CD3 antibody made in CHO cells, captured by anti-human Fc
Procedure, shortened: as §1

[7] = target: T7, ADI-67447; assay: SPR Carterra, yeast anti-ID
T7 construct: anti-CD3 antibody made in CHO cells, captured by anti-human Fc
T7 sequence (VH, as listed by the source limits assumed, chain 1 of 2): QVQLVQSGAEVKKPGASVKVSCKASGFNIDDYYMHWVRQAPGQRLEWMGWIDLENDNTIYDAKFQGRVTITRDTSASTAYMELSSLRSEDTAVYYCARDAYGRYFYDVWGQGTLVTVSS
T7 sequence (VL, as listed by the source limits assumed, chain 2 of 2): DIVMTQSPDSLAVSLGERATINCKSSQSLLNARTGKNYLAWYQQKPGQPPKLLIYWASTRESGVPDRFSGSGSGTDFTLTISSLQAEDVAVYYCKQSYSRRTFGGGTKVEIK
Procedure, shortened: as §1

[8] = target: T8, ADI-26909; assay: SPR Carterra, yeast anti-ID
T8 construct: anti-CD3 antibody made in CHO cells, captured by anti-human Fc
T8 sequence (VH, as listed by the source limits assumed, chain 1 of 2): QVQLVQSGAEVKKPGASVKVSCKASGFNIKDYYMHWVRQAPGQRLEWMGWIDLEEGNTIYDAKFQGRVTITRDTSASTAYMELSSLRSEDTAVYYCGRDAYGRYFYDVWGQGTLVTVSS
Procedure, shortened: as §1

[9] = target: T9, ADI-26921 IgG; assay: SPR Carterra, yeast anti-ID
T9 construct: anti-CD3 IgG
T9 sequence (VH, as listed by the source limits assumed, chain 1 of 2): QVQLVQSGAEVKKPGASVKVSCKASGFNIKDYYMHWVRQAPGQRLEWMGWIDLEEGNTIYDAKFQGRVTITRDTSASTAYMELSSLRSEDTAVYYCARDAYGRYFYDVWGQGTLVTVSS
T9 sequence (VL, as listed by the source limits assumed, chain 2 of 2): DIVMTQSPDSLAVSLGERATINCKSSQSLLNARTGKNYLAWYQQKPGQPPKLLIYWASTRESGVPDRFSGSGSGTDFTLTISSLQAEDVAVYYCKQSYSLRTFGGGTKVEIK
Procedure, shortened: as §1

[10] = target: T10, ADI-26912; assay: SPR Carterra, yeast anti-ID
T10 construct: anti-CD3 antibody made in CHO cells, captured by anti-human Fc
T10 sequence (VH, as listed by the source, chain 1 of 2): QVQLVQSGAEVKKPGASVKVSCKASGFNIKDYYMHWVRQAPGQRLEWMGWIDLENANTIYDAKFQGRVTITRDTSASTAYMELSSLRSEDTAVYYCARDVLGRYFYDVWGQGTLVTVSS
Procedure, shortened: as §1

[11] = target: T11, ADI-26915; assay: SPR Carterra, yeast anti-ID
T11 construct: anti-CD3 antibody made in CHO cells, captured by anti-human Fc
T11 sequence (VH, as listed by the source, chain 1 of 2): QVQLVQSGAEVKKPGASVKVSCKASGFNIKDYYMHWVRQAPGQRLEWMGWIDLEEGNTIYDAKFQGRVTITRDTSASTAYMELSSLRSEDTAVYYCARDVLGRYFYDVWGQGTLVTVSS
Procedure, shortened: as §1

[12] = target: T12, ADI-48576; assay: SPR Carterra, yeast anti-ID
T12 construct: pH-dependent anti-CD3 antibody made in CHO cells
T12 sequence (VH, as listed by the source, chain 1 of 2): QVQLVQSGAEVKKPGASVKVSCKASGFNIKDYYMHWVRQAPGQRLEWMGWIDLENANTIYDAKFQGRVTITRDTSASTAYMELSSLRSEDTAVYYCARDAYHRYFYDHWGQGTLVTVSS
T12 sequence (VL, as listed by the source, chain 2 of 2): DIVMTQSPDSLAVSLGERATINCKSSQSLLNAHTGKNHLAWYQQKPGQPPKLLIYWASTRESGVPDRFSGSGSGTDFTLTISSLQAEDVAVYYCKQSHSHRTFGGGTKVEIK
Procedure, shortened: as §1

[13] = target: T13, ADI-48587; assay: SPR Carterra, yeast anti-ID
T13 construct: pH-dependent anti-CD3 antibody made in CHO cells
T13 sequence (VH, as listed by the source, chain 1 of 2): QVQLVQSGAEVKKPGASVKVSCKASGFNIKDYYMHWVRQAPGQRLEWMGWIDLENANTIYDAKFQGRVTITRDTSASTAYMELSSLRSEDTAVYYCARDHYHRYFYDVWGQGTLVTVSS
T13 sequence (VL, as listed by the source, chain 2 of 2): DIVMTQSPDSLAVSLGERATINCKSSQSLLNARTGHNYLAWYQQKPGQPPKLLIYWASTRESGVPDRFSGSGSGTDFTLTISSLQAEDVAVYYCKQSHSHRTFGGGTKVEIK
Procedure, shortened: as §1

[14] = target: T14, ADI-48650; assay: SPR Carterra, yeast anti-ID
T14 construct: pH-dependent anti-CD3 antibody made in CHO cells
Procedure, shortened: as §1

[15] = target: T15, ADI-74965; assay: SPR Carterra, yeast anti-ID
T15 construct: pH-dependent anti-CD3 antibody made in CHO cells
Procedure, shortened: as §1

[16] = target: T16, ADI-74967; assay: SPR Carterra, yeast anti-ID
T16 construct: pH-dependent anti-CD3 antibody made in CHO cells
T16 sequence (VL, as listed by the source, chain 2 of 2): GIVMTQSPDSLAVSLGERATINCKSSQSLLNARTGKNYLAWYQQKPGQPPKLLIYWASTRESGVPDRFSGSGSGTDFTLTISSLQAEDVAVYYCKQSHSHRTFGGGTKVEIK
Procedure, shortened: as §1

[17] = target: T17, ADI-74968; assay: SPR Carterra, yeast anti-ID
T17 construct: pH-dependent anti-CD3 antibody made in CHO cells
Procedure, shortened: as §1

[18] = target: T18, ADI-76358; assay: SPR Carterra, yeast anti-ID
T18 construct: anti-CD3 antibody made in CHO cells, captured by anti-human Fc
Procedure, shortened: as §1

[19] = target: T19, ADI-76360; assay: SPR Carterra, yeast anti-ID
T19 construct: anti-CD3 antibody made in CHO cells, captured by anti-human Fc
T19 sequence (VH, as listed by the source, chain 1 of 2): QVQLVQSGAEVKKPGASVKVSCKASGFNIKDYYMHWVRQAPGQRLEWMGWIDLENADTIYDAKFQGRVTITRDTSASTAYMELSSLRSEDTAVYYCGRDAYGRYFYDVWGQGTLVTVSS
Procedure, shortened: as §1

[20] = target: T20, ADI-76361; assay: SPR Carterra, yeast anti-ID
T20 construct: anti-CD3 antibody made in CHO cells, captured by anti-human Fc
Procedure, shortened: as §1

[21] = target: T21, ADI-76362; assay: SPR Carterra, yeast anti-ID
T21 construct: anti-CD3 antibody made in CHO cells, captured by anti-human Fc
T21 sequence (VH, as listed by the source, chain 1 of 2): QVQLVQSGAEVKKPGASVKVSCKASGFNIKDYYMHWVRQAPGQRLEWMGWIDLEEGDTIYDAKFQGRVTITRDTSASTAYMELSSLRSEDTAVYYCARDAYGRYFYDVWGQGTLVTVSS
Procedure, shortened: as §1

[22] = target: T22, CTL-62223; assay: SPR Carterra, yeast anti-ID
T22 construct: also called mosunetuzumab
T22 sequence (VH, as listed by the source, chain 1 of 2): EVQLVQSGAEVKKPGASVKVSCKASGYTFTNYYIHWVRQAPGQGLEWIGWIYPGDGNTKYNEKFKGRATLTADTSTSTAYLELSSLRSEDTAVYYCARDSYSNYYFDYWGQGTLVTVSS
T22 sequence (VL, as listed by the source, chain 2 of 2): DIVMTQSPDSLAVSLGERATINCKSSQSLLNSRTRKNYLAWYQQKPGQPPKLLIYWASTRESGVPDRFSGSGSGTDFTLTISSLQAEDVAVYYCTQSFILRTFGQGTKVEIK
Procedure, shortened: as §1

[23] = target: T23, CTL-62227; assay: SPR Carterra, yeast anti-ID
T23 construct: also called odronextamab
Procedure, shortened: as §1

[24] = target: T24, CTL-62228; assay: SPR Carterra, yeast anti-ID
T24 construct: also called glofitamab
Procedure, shortened: as §1

[25] = target: T25, CTL-62240; assay: SPR Carterra, yeast anti-ID
T25 construct: also called ONO-4685
T25 sequence (VH, as listed by the source, chain 1 of 2): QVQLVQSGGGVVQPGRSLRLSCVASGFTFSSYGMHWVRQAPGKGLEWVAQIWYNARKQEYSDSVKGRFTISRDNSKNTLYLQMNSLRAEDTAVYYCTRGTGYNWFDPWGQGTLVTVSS
T25 sequence (VL, as listed by the source, chain 2 of 2): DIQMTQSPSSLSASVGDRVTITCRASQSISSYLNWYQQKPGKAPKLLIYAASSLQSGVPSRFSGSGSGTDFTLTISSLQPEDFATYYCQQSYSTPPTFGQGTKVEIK
Procedure, shortened: as §1

[26] = target: T26, ADI-26906 IgG; assay: SPR Carterra avidity, yeast anti-ID
T26 construct: anti-CD3 IgG
Procedure, shortened: as §1

[27] = target: T27, ADI-26913 IgG; assay: SPR Carterra avidity, yeast anti-ID
T27 construct: anti-CD3 IgG
T27 sequence (VH, as listed by the source limits assumed, chain 1 of 2): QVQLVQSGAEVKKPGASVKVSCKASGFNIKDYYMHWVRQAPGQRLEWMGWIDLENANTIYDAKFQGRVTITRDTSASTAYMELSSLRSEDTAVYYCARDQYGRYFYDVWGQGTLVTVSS
Procedure, shortened: as §1

[28] = target: T28, ADI-26916 IgG; assay: SPR Carterra avidity, yeast anti-ID
T28 construct: anti-CD3 IgG
Procedure, shortened: as §1

[29] = target: T29, ADI-26943; assay: SPR Carterra avidity, yeast anti-ID
T29 construct: anti-CD3 antibody made in CHO cells, captured by anti-human Fc
Procedure, shortened: as §1

[30] = target: T30, ADI-48592; assay: SPR Carterra avidity, yeast anti-ID
T30 construct: pH-dependent anti-CD3 antibody made in CHO cells
Procedure, shortened: as §1

[31] = target: T31, ADI-74966; assay: SPR Carterra avidity, yeast anti-ID
T31 construct: pH-dependent anti-CD3 antibody made in CHO cells
T31 sequence (VL, as listed by the source, chain 2 of 2): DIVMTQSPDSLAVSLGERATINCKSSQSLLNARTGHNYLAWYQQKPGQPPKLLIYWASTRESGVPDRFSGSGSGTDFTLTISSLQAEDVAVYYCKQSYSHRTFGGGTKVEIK
Procedure, shortened: as §1

[32] = target: T32, ADI-76357; assay: SPR Carterra avidity, yeast anti-ID
T32 construct: anti-CD3 antibody made in CHO cells, captured by anti-human Fc
Procedure, shortened: as §1

[33] = target: T33, ADI-76359; assay: SPR Carterra avidity, yeast anti-ID
T33 construct: anti-CD3 antibody made in CHO cells, captured by anti-human Fc
T33 sequence (VH, as listed by the source, chain 1 of 2): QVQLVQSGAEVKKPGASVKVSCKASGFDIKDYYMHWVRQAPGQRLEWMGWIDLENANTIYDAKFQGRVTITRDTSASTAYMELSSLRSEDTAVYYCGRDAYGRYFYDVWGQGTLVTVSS
Procedure, shortened: as §1

[34] = target: T34, ADI-22523 Fab; assay: BLI; tip anti-ID IgG, solution ADI-22523 Fab
T34 construct: anti-CD3 Fab by papain digestion of the IgG
Procedure, shortened: (§2)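 Anti-ID IgG was captured on AHC biosensors, equilibrated in assay buffer for 30 min, then baselined for 60 s. KD = koff/kon came from a 1:1 binding fit.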

[35] = target: T35, ADI-22523 IgG; assay: BLI; tip anti-ID IgG, solution ADI-22523 IgG
T35 construct: anti-CD3 IgG
Procedure, shortened: as §2

[36] = target: T36, ADI-26919; assay: SPR Carterra avidity, yeast anti-ID, *koff limit
T36 construct: anti-CD3 antibody made in CHO cells, captured by anti-human Fc
Procedure, shortened: as §1

[37] = target: T37, ADI-26920 IgG; assay: SPR Carterra avidity, yeast anti-ID, *koff limit
T37 construct: anti-CD3 IgG
T37 sequence (VH, as listed by the source limits assumed, chain 1 of 2): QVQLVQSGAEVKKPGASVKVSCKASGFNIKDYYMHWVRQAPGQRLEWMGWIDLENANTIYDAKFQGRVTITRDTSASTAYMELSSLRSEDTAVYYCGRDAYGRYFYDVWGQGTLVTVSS
Procedure, shortened: as §1

[38] = target: T38, ADI-26924; assay: SPR Carterra avidity, yeast anti-ID, *koff limit
T38 construct: anti-CD3 antibody made in CHO cells, captured by anti-human Fc
Procedure, shortened: as §1

T1 sequence (VH, as listed by the source limits assumed, chain 1 of 2): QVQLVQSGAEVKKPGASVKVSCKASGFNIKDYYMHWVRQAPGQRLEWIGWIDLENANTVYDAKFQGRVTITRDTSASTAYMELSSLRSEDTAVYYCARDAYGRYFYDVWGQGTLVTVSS

B1: ADI-30254 (antibody, V domains shown)
VH: EVQLLESGGGLVQPGGSLRLSCAASGFTFSSYAMSWVRQAPGKGLEWVSTISGSGGSTYYADSVKGRFTISRDNSKNTLYLQMNSLRAEDTAVYYCARLGGRRGSGSSYYYYYGMDVWGQGTTVTVSS
VL: not shown
notes: anti-ID IgG
no binding (tested: up to 200 nM): binding result [1] | binding result [2] | binding result [3] | binding result [4] | binding result [5] | binding result [6] | binding result [7] | binding result [8] | binding result [9] | binding result [10] | binding result [11] | binding result [12] | binding result [13] | binding result [14] | binding result [15] | binding result [16] | binding result [17] | binding result [18] | binding result [19] | binding result [20] | binding result [21] | binding result [22] | binding result [23] | binding result [24] | binding result [25]
3.34 nM: Kd [35]
27 nM: Kd [29] | Kd [33]
50.3 nM: Kd [34]
56 nM: Kd [28]
33 nM: Kd [36]
21 nM: Kd [37] | Kd [38]
binds: binding result [26] | binding result [27] | binding result [30] | binding result [31] | binding result [32]
